The text below walks through data of article PMC11724882, “Molecular basis for the enzymatic inactivity of class III glutaredoxin ROXY9 on standard glutathionylated substrates” (Nature Communications, 2025).

Data set [1] deals with Cys23 (UniProt position 23, FSKTYCPYCVR). The data set can be described thus: chemical modification. The note with it: buffers at a normality of 0.1; no added salt stated; citrate pH 2.0-6.0; KH2PO4/Na2HPO4 pH 6.5-8.0; Na2B4O7 pH 8.5-10.0. Protein was desalted into 5 mM HEPES pH 7.0. 10 µl protein was mixed with 40 µl pH buffer and 5 µl 100 mM IAM.; Pre-reduced with 10 mM DTT and desalted; no glutathione or other ligand; native protein during the IAM step.

Data set [2] concerns the target Cys23 (UniProt position 23, FSKTYCPYSVR). The experiment in a line: chemical modification. The conditions noted are these: buffers at a normality of 0.1; no added salt stated; citrate pH 2.0-6.0; KH2PO4/Na2HPO4 pH 6.5-8.0; Na2B4O7 pH 8.5-10.0. Protein was desalted into 5 mM HEPES pH 7.0. 10 µl protein was mixed with 40 µl pH buffer and 5 µl 100 mM IAM.; Pre-reduced with 10 mM DTT and desalted; no glutathione or other ligand; native protein during the IAM step.

Data set [3] addresses Cys21 (UniProt position 21, FTKSSCCLCYA). The data set can be described thus: chemical modification. The conditions noted are these: buffers at a normality of 0.1; no added salt stated; citrate pH 2.0-6.0; KH2PO4/Na2HPO4 pH 6.5-8.0; Na2B4O7 pH 8.5-10.0. Protein was desalted into 5 mM HEPES pH 7.0. 10 µl protein was mixed with 40 µl pH buffer and 5 µl 100 mM IAM.; Pre-reduced with 10 mM DTT and desalted; no glutathione or other ligand; native protein during the IAM step.

For data set [4], the target named is Cys21 (UniProt position 21, FTKSSCSLSYA). The experiment in a line: chemical modification. The note with it: buffers at a normality of 0.1; no added salt stated; citrate pH 2.0-6.0; KH2PO4/Na2HPO4 pH 6.5-8.0; Na2B4O7 pH 8.5-10.0. Protein was desalted into 5 mM HEPES pH 7.0. 10 µl protein was mixed with 40 µl pH buffer and 5 µl 100 mM IAM.; Pre-reduced with 10 mM DTT and desalted; no glutathione or other ligand; native protein during the IAM step.

Data set [5] has as its target Cys22 (UniProt position 23, FIKPTCPFARK). The note with it: cited from earlier work.
The target in data set [6] is Cys22 (UniProt position 23, FIKPTCPFSRK). The conditions noted are these: cited from earlier work.
Data set [7] deals with Cys22 (UniProt position 23, FIKPTCPFCRK). The conditions noted are these: cited from earlier work.
Data set [8] concerns the molecule itself. The data set can be described thus: SEC; analytical gel filtration of the affinity-purified strep-MBP fusion proteins (purified in the presence of 5 mM GSH); strep-MBP-ROXY9 also after DTT treatment. (SEC sorts molecules by how far they enter the pores of the column.)

Values joined by “and” are separate entries in the source; they are usually repeats but may differ in a detail not shown here. Equal entries are not always repeated.

As a reminder, the pKa is the negative logarithm of the acid dissociation constant. With “Glutaredoxin GRXC2 (class I GRX), strep-MBP fusion, wild type (Arabidopsis thaliana)”, the pKa entry with Cys23 [1] is “between 3.0 and 3.5”.

For “Glutaredoxin GRXC2-CSS variant (only CysA retained), strep-MBP fusion (Arabidopsis thaliana; C26S;C80S)”, the pKa result with Cys23 [2] was “between 3.5 and 4.0”.

In the case of “Glutaredoxin ROXY9 (class III / CC-type GRX, CEPD2), strep-MBP fusion, wild type (Arabidopsis thaliana)”, the pKa result with Cys21 [3] is “between pH 4 and 4.5”.

For “Glutaredoxin ROXY9 single-cysteine variant (only Cys21 retained), strep-MBP fusion (Arabidopsis thaliana; C22S;C24S;C49S;C61S)”, the pKa entry with Cys21 [4] was “between 6 and 7”.

As for “Pig glutaredoxin (liver thioltransferase) C25A (Sus scrofa; C25A)”, in the data set with Cys22 [5], the pKa is 5.9.

For “Pig glutaredoxin (liver thioltransferase) C25S (Sus scrofa; C25S)”, in the data set with Cys22 [6], the pKa is recorded as 4.9.

As for “Pig glutaredoxin (liver thioltransferase), wild type (Sus scrofa)”, the pKa in the data set with Cys22 [7] was 3.8.

B1: strep-MBP-ROXY9 (enzyme, Arabidopsis thaliana, UniProt O82255 1-102, looked up)
chain: MDKVMRMSSEKGVVIFTKSSCCLCYAVQILFRDLRVQPTIHEIDNDPDCREIEKALLRLGCSTAVPAVFVGGKLVGSTNEVMSLHLSGSLVPLIKPYQSILY
notes: class III glutaredoxin ROXY9, Arabidopsis thaliana, AT2G47880; ORF inserted into a variant of MacroLab vector 438-C (modified pFastBac, Addgene plasmid 48296) in which the His-tag was exchanged for Strep-tag II; a TEV site lies between the tag and ROXY9; also called class III GRX ROXY9; CEPD2; source: Hi5 insect cells (baculovirus), purified (MBPTrap, eluted with maltose, 5 mM GSH in buffer)
What is called stoichiometry N is a count of units in the complex or per binding partner. As for B1, in data set [8], the “stoichiometry N” value is 2 and 3.
